Data: publication PMC7498356
Substitutions are numbered along the chain they refer to.

Assays:
[1] = biological target: T1, TDRD5 LOTUS domain 1 (L1) (Mus musculus, UniProt Q5VCS6 7-80); test: ELISA
T1 sequence: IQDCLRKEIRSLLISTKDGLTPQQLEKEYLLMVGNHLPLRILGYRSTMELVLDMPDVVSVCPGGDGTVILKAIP

[2] = biological target: T1, TDRD5 LOTUS domain 1 (L1); test: pull-down, ELISA
[3] = biological target: T2, TDRD5 LOTUS domain 2 (L2) (Mus musculus, UniProt Q5VCS6 122-197); test: pull-down, ELISA
T2 sequence: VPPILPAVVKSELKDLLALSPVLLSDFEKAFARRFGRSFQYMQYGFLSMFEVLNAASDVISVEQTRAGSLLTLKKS

[4] = biological target: T3, TDRD5 LOTUS domain 3 (L3) (Mus musculus, UniProt Q5VCS6 291-365); test: pull-down, ELISA
T3 sequence: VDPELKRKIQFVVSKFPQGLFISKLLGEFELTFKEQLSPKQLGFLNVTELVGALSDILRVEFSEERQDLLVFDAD

AT3G52980-LOTUS = biological target: T4, AT3G52980-LOTUS (plant, UniProt Q9LF94 199-282); test: ELISA
T4 sequence: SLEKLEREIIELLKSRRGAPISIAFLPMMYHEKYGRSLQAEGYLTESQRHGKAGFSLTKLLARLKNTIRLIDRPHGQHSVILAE

human MARF1 L7 = biological target: T5, human MARF1 L7 (Homo sapiens, UniProt Q9Y4F3 1411-1485); test: ELISA
T5 sequence: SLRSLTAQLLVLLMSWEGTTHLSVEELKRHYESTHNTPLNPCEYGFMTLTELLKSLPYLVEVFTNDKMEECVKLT

Oskar LOTUS (eLOTUS) = biological target: T6, Oskar LOTUS (eLOTUS) (Drosophila, UniProt P25158 139-241); test: ELISA
T6 sequence: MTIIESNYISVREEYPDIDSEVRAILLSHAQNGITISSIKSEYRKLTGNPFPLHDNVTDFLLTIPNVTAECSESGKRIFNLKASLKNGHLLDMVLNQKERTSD

TDRD7 L2 = biological target: T7, TDRD7 L2 (Mus musculus, UniProt Q8K1H1 222-291); test: ELISA
T7 sequence: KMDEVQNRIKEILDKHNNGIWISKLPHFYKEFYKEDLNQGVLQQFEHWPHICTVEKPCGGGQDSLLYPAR

human TDRD5 L1 = biological target: T8, human TDRD5 L1 (Homo sapiens, UniProt Q8NAT2 7-80); test: ELISA
T8 sequence: T1 sequence with D3E, T21S, Q24E, S59R, G64A, D65G

human TDRD7 L1 = human TDRD7 L1 (Homo sapiens, UniProt Q8NHU6 3-76); test: ELISA
Tejas LOTUS = biological target: T9, Tejas LOTUS (Drosophila, UniProt A1Z9P1 6-79); test: ELISA
T9 sequence: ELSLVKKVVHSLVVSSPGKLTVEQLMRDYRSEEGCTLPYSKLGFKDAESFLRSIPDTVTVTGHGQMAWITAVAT

TDRD7 L3 = biological target: T10, TDRD7 L3 (Mus musculus, UniProt Q8K1H1 325-394); test: ELISA
T10 sequence: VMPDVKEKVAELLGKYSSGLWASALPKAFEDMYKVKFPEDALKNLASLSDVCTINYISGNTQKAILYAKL

TDRD7 L1 = biological target: T11, TDRD7 L1 (Mus musculus, UniProt Q8K1H1 3-76); test: ELISA
T11 sequence: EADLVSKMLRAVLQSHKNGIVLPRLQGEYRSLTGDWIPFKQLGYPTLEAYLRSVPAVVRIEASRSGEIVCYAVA

TP0894-LOTUS = biological target: T12, TP0894-LOTUS (Treponema pallidum subsp. pallidum str. …, UniProt O83864 178-253); test: ELISA
T12 sequence: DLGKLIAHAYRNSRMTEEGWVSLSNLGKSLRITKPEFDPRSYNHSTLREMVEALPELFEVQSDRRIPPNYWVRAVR

human MARF1 L1 = biological target: T13, human MARF1 L1 (Homo sapiens, UniProt Q9Y4F3 875-949); test: ELISA
T13 sequence: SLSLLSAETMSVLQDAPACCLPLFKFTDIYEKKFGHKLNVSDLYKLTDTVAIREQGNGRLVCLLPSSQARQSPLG

[5] = biological target: T1, TDRD5 LOTUS domain 1 (L1); test: DRaCALA
[6] = biological target: T3, TDRD5 LOTUS domain 3 (L3); test: ELISA

Measured: binding result

human TDRD7 L1, sequence (Q8NHU6 3-76): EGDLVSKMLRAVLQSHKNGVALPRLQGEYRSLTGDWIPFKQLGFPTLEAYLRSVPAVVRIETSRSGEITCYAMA

B1: TERRA G4 DNA (structured_DNA)
DNA: TTAGGGTTAGGGTTAGGGTTAGGG
no binding: [1]

B2: Poly(C) (ssRNA)
RNA: CCCCCCCCCCCCCCCCCCC
no binding: [2] | [3] | [4]

B3: Cluster G4-1 RNA (structured_RNA)
RNA: GGUGGGCAGGGGAGUGGGGGUGGG
no binding: [4]
not listed: [1] | [2] | [3] | [6]
binds: all other assays above

B4: Poly(G) (ssRNA)
RNA: GGGGGGGGGGGGGGGGGGG
no binding: [6]
